Results: patent US20090075291A1, “PEPTIDE-BASED REGULATION OF GAP JUNCTIONS” (The Research Foundation of State University of New York, priority 2006, published 2009)

Assays:
Cx43CT [1] = molecular target: T1, Cx43CT (Rattus norvegicus, UniProt P08050); experiment: Surface Plasmon Resonance (SPR) binding of synthetic peptides to immobilised recombinant Cx43CT; conditions: for SPR binding to Cx43CT (in words): Cx43CT bound to carboxymethyl dextran matrix
T1 construct: GST (N, cleaved yes); made in house; host or cells: E. coli BL-21
Text: Recombinant Cx43CT was produced as described in Duffy et al., “pH-Dependent Intramolecular Binding and Structure Involving Cx43 Cytoplasmic Domains,” J. Biol. Chem. 277(39):36706-36714 (2002), which is hereby incorporated by reference in its entirety. Briefly, cDNA derived from rat Cx43 was inserted into pGEX-6P-2 (Amersham) and expressed in E. coli (BL-21). The resultant GST-fusion protein was cleaved from the GST PreScission Protease® (Amersham Biosciences). The recombinant product after cleavage contained the sequence 255-382 of rCx43 preceded by four additional amino acids (GPLG). Protein concentration was measured using the Bio-Rad DC Protein Assay. Protein purity was assessed by SDS-PAGE.
Recombinant Cx43CT was covalently bound to a carboxylmethyl dextran matrix (Salamon et al., “Surface Plasmon Resonance Spectroscopy as a Tool for Investigating the Biochemical and Biophysical Properties of Membrane Protein Systems. II: Applications to Biological Systems,” Biochim. Biophys. Acta 1331(2):131-152 (1997), which is hereby incorporated by reference in its entirety). Specific peptides were presented and, when feasible, dissociation constants (KD) were calculated from the time course of binding and unbinding of the ligand, using a 1:1 (Langmuir) association and dissociation kinetic model (Biacore software package). In both phases (association and dissociation), the first 5-8 seconds of recording were not included in the fit, to avoid artifacts resulting from peptide distribution within the flow cells (Lang et al., “Surface Plasmon Resonance as a Method to Study the Kinetics and Amplitude of Protein-protein Binding,” in PRACTICAL METHODS IN CARDIOVASCULAR RESEARCH 936-947 (Stefan Dhein, Friedrich Wilhelm Mohr & Mario Delmar eds., 2005), which is hereby incorporated by reference in its entirety).
Phage display allows for the rapid screening of thousands of peptides, but the characteristics of binding cannot be properly defined. Furthermore, the peptides are part of a capsid protein, which may affect the ability of the peptide to properly interact with the target protein. Therefore, some of the peptides identified by the phage screening were selected to, using SPR, further characterize their ability to bind Cx43CT. Recombinant Cx43CT was covalently bound to a carboxymethyl dextran matrix and synthetic peptides presented for binding. A total of six 12-mer peptides from the non-biased screening (peptides labeled RXP1 to RXP6 in Table 1) and 5 peptides from the biased screening (labeled RXP-A to RXP-E in Table 3) were tested. […] Peptide RXP4 (SEQ ID NO:15) caused the largest deflection in SPR signal. RXP4 (250 μM) was added at time “zero.” Washout was initiated after two minutes of exposure. […] Higher concentrations of the peptide were tested but an asymptotic maximum response could not be detected. In addition, dissociation rates were too fast to reliably use them to calculate the kinetics of binding.
A different result emerged from the testing of the doublets. […] The transitions were well-fit by exponential functions and the rates of association and dissociation were used as described in Example 4 to estimate the kinetic parameters. A full range of concentrations was tested in three separate occasions and at two different pHs of the solvent (6.5 and 7.4). […] Adhes. 8(4-6):219-223 (2001), which is hereby incorporated by reference in its entirety), and that measured for the binding of Aquaporin-0 to Cx45.6 (Yin et al., “The Development-associated Cleavage of Lens Connexin 45.6 by Caspase-3-like Protease is Regulated by Casein Kinase II-mediated Phosphorylation,” J. Biol. Chem. 276(37):34567-34572 (2001), which is hereby incorporated by reference in its entirety).
The peptides were tested for binding to the carboxyl terminal domain of Cx43 using Surface Plasmon Resonance (“SPR”). […]

Cx43CT [2] = molecular target: T1, Cx43CT; experiment: Biased (XXXXRXPXXXX) phage display screening against Cx43CT; format: binding; conditions: for Total Frequency (%): all three runs, 402 inserts sequenced; for Frequency Run 2(%) / Frequency Run 1 (%): binding step at pH 6.5; for Frequency Run 2(%): 119 inserts sequenced; for Frequency Run 1 (%): 120 inserts sequenced; for Frequency Run 3 (%): binding step at pH 7.4, 163 inserts sequenced
Protocol: A “library” of bacteriophage, displaying ˜[…] of 2.7×10^9 random 12-mer peptides (Ph.D.-12™ Phage display peptide library kit; New England BioLabs Inc.) was utilized. Wells in 24-well plates were coated with 15 μg of recombinant CT and blocked with 5 mg/ml BSA. After removing the unbound viruses by washing with Tris buffered saline containing 0.5% tween-20 (TBS-T), low affinity binders were eluted with a solution of TBS-containing Cx43CT at a concentration of 100 μg/ml. High affinity binders were recovered by overlaying the well with a culture of E. coli, to allow the tightly bound phage to infect the bacteria. This culture was amplified and the virus was precipitated with PEG. The amplified product was used for the subsequent round of panning. All steps were conducted at pH 6.5 unless otherwise indicated.
After three rounds of selection and amplification, the phage recovered from the last round of binding were grown on a lawn of E. coli for plaque purification. Each plaque, representing a single clone, was picked and amplified. The phage were isolated and analyzed by DNA sequencing.
The Ph.D. Peptide Display Cloning System (New England BioLabs Inc.) was used to create a biased phage display library of sequence XXXXRXPXXXX, where X is any amino acid flanking an arginine and a proline with an additional random residue at the center. The randomized peptides were followed by a Gly-Gly-Gly-Ser (SEQ ID NO:2) spacer. The library was cloned into M13 phage. These phage were analyzed for titer and sequence prior to screening for Cx43CT binding as described above.
The RXP motif was not detected in phage that bound to streptavidin. The motif occurred in different positions within the 12-mer peptide, thus preventing proper alignments to determine the frequency of other amino acids at specific positions relative to the RXP. To overcome this limitation and to search for peptides with higher binding affinity (see Example 10), a biased phage display library was generated where the RXP motif was forced to the center of the sequence, flanked at each side by 4 randomized amino acids. Sixty clones containing an insert (out of an estimated 3-4×10^4 total clones in the library) were chosen at random for sequencing prior to exposure of the library to Cx43CT. All inserts coded for an 11-mer peptide with the RXP motif in the appropriate location. In three independent runs, the same library was presented to Cx43CT. The binding step was carried out at pH 6.5 in two of the runs (run 1 and 2) and at pH 7.4 in one additional run (run 3). The total number of phage plaques containing a full coding insert that were recovered after the binding step were 120, 119 and 163 for runs 1, 2 and 3, respectively. […] These inserts may be consequent to incomplete restriction enzyme digestion as well as possible residual activity of the Klenow polymerase used in second strand production. The combination of these two factors would result in blunt ends that subsequently ligated. […] Furthermore, five specific peptides were recovered from all three runs and represented a large fraction of the repeats observed within the same run (see Table 2).

Cx43CT [3] = molecular target: T1, Cx43CT; experiment: NMR 15N-HSQC resonance shifts of 15N-Cx43CT in presence of peptide; format: binding; conditions: PBS pH 5.8, peptide to Cx43CT about 2.4 mM to 0.8 mM (3:1)
Protocol: All NMR data were acquired on a Varian INOVA 600-MHz NMR spectrometer using a cryoprobe (MacUra & Ernst, “Elucidation of Cross Relaxation in Liquids by Two-dimensional NMR Spectroscopy,” Mol. Phys. 41:95-117 (1980), which is hereby incorporated by reference in its entirety); the sample temperature was maintained at 7° C. Gradient-enhanced two-dimensional ^1H-^15N HSQC experiments (Kay et al., “Pure Absorption Gradient Enhanced Heteronuclear Single Quantum Correlation Spectroscopy with Improved Sensitivity,” J. Am. Chem. Soc. 114:10663-10665 (1992), which is hereby incorporated by reference in its entirety) were used to observe all backbone amide resonances in ^15N-labeled Cx43CT. Data were acquired with 1024 complex points in t2 and 128 complex points in t1. Sweep widths were 10,000 Hz in the proton dimension and 2,500 Hz in the nitrogen dimension. The concentration of RXP peptide to Cx43CT was approximately 2.4 mM to 0.8 mM, respectively (3:1 ratio). All NMR data were processed using NMRPipe (Delaglio et al., “NMRPipe: A Multidimensional Spectral Processing System Based on UNIX Pipes,” J. Biomol. NMR 6(3):277-293 (1995), which is hereby incorporated by reference in its entirety) and analyzed using NMRView (Sorgen, “How to Solve a Protein Structure by Nuclear Magnetic Resonance The Connexin43 Carboxyl Terminal Domain,” in PRACTICAL METHODS IN CARDIOVASCULAR RESEARCH 948-958 (Stefan Dhein, Friedrich Wilhelm Mohr & Mario Delmar eds., 2005), which is hereby incorporated by reference in its entirety).
Peptides RXP1, RXP4 and RXP-E were tested for their ability to modify the structure of Cx43CT. The peptides were diluted in PBS (pH 5.8) containing ^15N-Cx43CT, and ^15N-HSQC spectra were acquired. Results for RXP4 and RXP-E are shown in FIGS. 4A (RXP4) and 4B (RXP-E). The specific resonance peaks that correspond to each amino acid in the Cx43CT sequence have been assigned (Sorgen et al., “Sequence-specific Resonance Assignment of the Carboxyl Terminal Domain of Connexin43,” J. Biomol. NMR 23(3):245-246 (2002), which is hereby incorporated by reference in its entirety). […]

T1 sequence (P08050 255-382): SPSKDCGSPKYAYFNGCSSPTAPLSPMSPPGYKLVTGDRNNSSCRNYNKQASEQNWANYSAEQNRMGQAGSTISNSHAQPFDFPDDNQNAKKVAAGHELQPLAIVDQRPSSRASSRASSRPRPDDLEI

| Substance | Response (SPR amplitude) (Cx43CT [1]; peptide concentration 1.0 mM) [arbitrary units] | Total Frequency (%) (Cx43CT [2]) | Frequency Run 2(%) (Cx43CT [2]) | Frequency Run 1 (%) (Cx43CT [2]) | Frequency Run 3 (%) (Cx43CT [2]) | also measured |
| --- | --- | --- | --- | --- | --- | --- |
| AcRNPRNP-NH2 (Ac-RNPRNP-NH2) [Peptide 2501] | 24.8 |  |  |  |  | Response (SPR amplitude) (Cx43CT [1]; peptide concentration 500 μM): 14.4 arbitrary units |
| AcRRKP-NH2 (Ac-RRKP-NH2) [Peptide 2504] | 46.5 |  |  |  |  |  |
| GIAAREPNSHDGGGSAHARVPFYSHSRDLWRKPAKSL (RXP-containing peptide) |  | 15.2 | 11.8 | 12.5 | 19.6 |  |
| DVPGRDPGYIKGGGSAHARVPFYSHSLNRNRKPSLYQ (RXP-containing peptide) [RXP-A] |  | 40 | 64.7 | 20.8 | 36.2 |  |
| R R P P Y R V P R K L F (RRPPYRVPPKLF) [RXP4] |  |  |  |  |  | SPR binding to Cx43CT (in words) (Cx43CT [1]): too weak to allow for proper calculation of kinetic values; SPR binding to Cx43CT (in words) (Cx43CT [1]; listed as RXP-4): weak intermolecular binding; Shift of Cx43CT resonance peaks (15N-HSQC) (Cx43CT [3]): strongly affected the resonance peaks of residues R376, D378, and D379; Shift of Cx43CT resonance peaks (15N-HSQC) (Cx43CT [3]; listed as RXP-4): caused a shift in the position of residues 376, 378 and 379, as well as residues 343-346 |
| AcRRNP-NH2 (Ac-RRNP-NH2) [Peptide 2505] | 34.9 |  |  |  |  |  |
| G H L H L R V P T L K M (GHLHLRVPTLKM; RXP-containing peptide) [RXP1] |  |  |  |  |  | SPR binding to Cx43CT (in words) (Cx43CT [1]): detectable, pH-dependent binding; SPR binding to Cx43CT (in words) (Cx43CT [1]; listed as RXP-1): very weak (almost undetectable) interaction; Shift of Cx43CT resonance peaks (15N-HSQC) (Cx43CT [3]): no resonance shifts were observed |
| AcRRKPRRKP-NH2 (Ac-RRKPRRKP-NH2) [Peptide 2503] | 294.7 |  |  |  |  | Response (SPR amplitude) (Cx43CT [1]; peptide concentration 25 μM): 27.5 arbitrary units; Response (SPR amplitude) (Cx43CT [1]; peptide concentration 100 μM): 80.6 arbitrary units; Response (SPR amplitude) (Cx43CT [1]; peptide concentration 250 μM): 147.0 arbitrary units; Response (SPR amplitude) (Cx43CT [1]; peptide concentration 500 μM): 214.8 arbitrary units |
| AcRNP-NH2 (Ac-Arg-Asn-Pro-NH2) [Peptide 2502, small RXP peptide] | 4.6 |  |  |  |  |  |
| EIQPRSPLMFSGGGSAHARVPFYSHSAKEARWPRAHR (RXP-containing peptide) [RXP-B] |  | 8.2 | 2.5 | 6.7 | 13.5 |  |
| WEEPRRPFTMSGGGSAETHARVPFYSHSPMRHRLPGVHL (RXP-containing peptide) [RXP-D] |  | 6 | 0.8 | 16.7 | 1.8 |  |
